Each block holds one molecule with its values, some of them ahead of it.
Assays:
[1] = target: water-soluble hFcRn (human) (UniProt P55899); assay: SPR (Proteon XPR36), shFcRn immobilized on GLC chip, hIgG1 as analyte, pH 6.0
[2] = target: T1, human FcRn (co-crystal with HL161BK Fab) (human, UniProt P55899 24-297; P61769 21-119); assay: X-ray co-crystal structure at 2.4 Å
T1 construct: also called hFcRn
Text: There are two copies each of hFcRn and HL161BK Fab per asymmetric unit. […] A data set was collected at ESRF beamline ID30A-1.

Kd [1]: 1.4 nM | koff [1]: 0.00046 s⁻¹ | kon [1]: 320000 M⁻¹ s⁻¹
Molecule: hIgG1 (antibody)

binding result [2]: binds
B1: HL161BK antibody Fab fragment (Fab, V domains shown)
VH: QLLLQESGPGLVKPSETLSLTCTVSGGSLSSSFSYWVWIRQPPGKGLEWIGTIYYSGNTYYNPSLKSRLTISVDTSKNHFSLKLSSVTAADTAVYYCARRAGILTGYLDSWGQGTLVTVSS
VL: SYVLTQSPSVSVAPGQTARITCGGNNIGSKSVHWYQQKPGQAPVLVVYDDSDRPSGIPERFSASNSGNTATLTISRVEAGDEADYYCQVWDSSSDHVVFGGGTKLTVLGQPKAAPSVTL
notes: HL161BK is HL161B with asparagine (N) at position 83 of the heavy-chain variable framework replaced by lysine (K); It was used as a Fab in the crystal; also called HL161BK Fab

— patent US20170210805A1 (published 2017)
